Test results as given in the DeepSol protein solubility set.

Assay: soluble on expression in E. coli; label from the status in PepcDB or PDB records

| Sequence | soluble on expression in E. coli |
| --- | --- |
| MFQRKTLQRRNLKGLNLNLHPDVGNNGQLQEKTETHQGQSRIEGHVMSNINAIQNNSNLFLRRGIKKKLTLDAFGDDQAISKPNTVVIQQPQNEPVLVLSSLSQSPCVSSSSSLSTPCIIDAYSNNFGLSPSSTNSTPSTIQGLSNIATPVENEHSISLPPLEESLSPAAADLKDTLSGTSNGNYIQLQDLVQLGKIGAGNSGTVVKALHVPDSKIVAKKTIPVEQNNSTIINQLVRELSIVKNVKPHENIITFYGAYYNQHINNEIIILMEYSDCGSLDKILSVYKRFVQRGTVSSKKTWFNELTISKIAYGVLNGLDHLYRQYKIIHRDIKPSNVLINSKGQIKLCDFGVSKKLINSIADTFVGTSTYMSPERIQGNVYSIKGDVWSLGLMIIELVTGEFPLGGHNDTPDGILDLLQRIVNEPSPRLPKDRIYSKEMTDFVNRCCIKNERERSSIHELLHHDLIMKYVSPSKDDKFRHWCRKIKSKIKEDKRIKREALDRAKLEKKQSERSTH | not soluble |
| MGSDKIHHHHHHMKIERLDKYIWKIPKEGDMKVDAIIFTDAESVNDPQFREAMKQLMNVATLPGIVKYALAMPDIHWGYGFPIGGVAAFDVKEGIISPGGVGFDINCGVRLMKTDLTYEDVKDRMRSLVEAIYEFVPAGVGSTGDIVLGKKGLRKVLVEGAEWAVKSGYGLEEDLERIEDGGKIHPADPSYVSEEAFERGSDELGTLGAGNHFVEVQMVQEIYDEELAEFFGLEIGTITVMIHSGSRGFGHQVATDYIRLMRDNLKEHNKNLPDKQLINAPFEHPLGQAYYSAMNCAANYAFANREILGHLVRKAFWKVFGRDTRVDLIYDVAHNIAKVEEYEVDGKRRKLVVHRKGATRSLGPGSEKVPSIYREVGQPVIIPGDMGTASYLLVGTKKAEEKTFGSTAHGAGRVLGRSAALKKLDYREVLDELAEKNIVVMSKSKKTLVEEAPEVYKDVDRVVQIVHEIGISRKVARMIPLGVVKG | not soluble |
| MSAATKKRYITNKVGSEFYELVDEDIIAQVRQSRGNNLHEVLDQNGDSYVVSMPTKFRKSVWLRRDQFVVVRPITEGDKVKGEIEYILDQDNVLYIRELGKWPTCFEENALKMTREAKRGQTSDKMIDDDMLPPSESEEEDESEGEETYDEDDVDDEEEEEFDTYNPNRMQAPSK | not soluble |
| MKKFSGIIPPVSSTFHRDGTLDKKAMREVADFLINKGVDGLFYLGTGGEFSQMNTAQRMALAEEAVTIVDGRVPVLIGVGSPSTDEAVKLAQHAQAYGADGIVAINPYYWKVAPRNLDDYYQQIARSVTLPVILYNFPDLTGQDLTPETVTRLALQNENIVGIKDTIDSVGHLRTMINTVKSVRPSFSVFCGYDDHLLNTMLLGGDGAITASANFAPELSVGIYRAWREGDLATAATLNKKLLQLPAIYALETPFVSLIKYSMQCVGLPVETYCLPPILEASEEAKDKVHVLLTAQGILPV | not soluble |
| MIGAVNSVEAVITSIQGLSGSPEDLSALHDLLRGAQDSLRAEPGVNFSTLDQLDASKHSLGYLYFLEVLTCGPVSKEKAAYEIPIIARFINSCDAGQIRLASYKFVSLCKILKDHVIALGDPLRGVGPLLNAVQKLQVSSKRLTALHPDVLQLCLQAKSYKSGFSILSDDIVEIDQPRDFFLYSYYGGMICIGLKRFQKALELLYNVVTAPMHQVNAIALEAYKKYILVSLIHNGQFTNTLPKCASTAAQRSFKNYTGPYIELGNCYNDGKIGELEALVVARNAEFEEDKNLGLVKQAVSSLYKRNILRLTQKYLTLSLQDIANMVQLGNAKEAEMHVLQMIQDGQIHALINQKDGMVRFLEDPEQYKSSEMIEIMDSVIQRTIGLSKNLLAMDESLSCDPLYLGKVGRERQRYDFGDDFDTVPQKFSM | soluble |
| MGSDKIHHHHHHMYTIAIDLGGTVVKIGLLSDGEIVDCVRLPSRLALGLALNLPKIKEAIDRLLAAWRIDVAALRCIGLAFPGLVDPIHNRVISTNEKYDDACSISLDKWAWENWEVPFCMDNDARLAVAGEWWQGAARGKNNVVMMTIGTGIGTGVVIDGRLLYGQHFQAGSLGGHFVLDYKGRRCSCGNKGCVEALSSSFFLPTIIREHALLSESFKRDADIYDFKRIFRLAQEGNTDALLIRNECMDIWASAIITYIHAYDPEVVILGGGILKSQEVIIPYISKRVDELAWCPSGKVPVVPAILGDDAALFGLEYFMVKQQQNERICI | not soluble |
| SNAYSIALIIPSLFEKACAHFLPSFQQALNKAGYQLLLGYSDYSIEQEEKLLSTFLESRPAGVVLFGSEHSQRTHQLLEASNTPVLEIAELSSKASYLNIGVDHFEVGKACTRHLIEQGFKNVGFIGARGNHSTLQRQLHGWQSAMIENYLTPDHFLTTHEAPSSQLGAEGLAKLLLRDSSLNALVCSHEEIAIGALFECHRRVLKVPTDIAIICLEGSSMGEHAYPSLTSAEFDYERMGTKAAEKLLHAIKGEPEERPTSMGFKLKRRASTAIN | soluble |
| MHRDSCPLDCKVYVGNLGNNGNKTELERAFGYYGPLRSVWVARNPPGFAFVEFEDPRDAADAVRELDGRTLCGCRVRVELSNGEKRSRNRGPPPSWGRRPRDDYRRRSPPPRRRSPRRRSFSRSRSRSLSRDRRRERSLSRERNHKPSRSFSRSRSRSRSNERK | soluble |
| MGVPMGNGDCGAEFKCPPNFHKSNRVNGVWCIKVYPGNMTWWEAERECRCTIKGGHLSGIESNSEKRYVEEQTLSILDDKNIKNGAVWLGAYRRKECPSGKVSSDSICHDEKTFQFTDQHTCKTLIFQDWAANQPTNNAGDDCAVLLASTEASGSNSEASGKAAVKNCLHVQGTTPILSSVGFVCGVKAAQEGGNYGGYGGGDFMVIGAAKPKH | not soluble |
| MEEIMLFPLSSVVLPEGKMKLRIFEPRYQRMVAQCSKTGSGFGLCLFDSKSNKNANELSEFGTLVKIVDFETLSDGLLGITVVGIRRFAIRKVRVEYDGLRIATVQWFPDWPSQELLERERFLGEQLQEVYRQFPQIGELHSLCFFDDASWVCQRWLELLPLSKGQFDVLVGQRDCHAALAFLQRTIESHLDT | not soluble |
| MSLDKGTVDGRLYQLFKTCIQGINSPLSSVALRSDFYILANHYLSRVLSDQVGSEKVLQDLRLGSKKLVEIIWNDVVYGEGTSRVTGILLLDSLIQLANRSKENFILDSLMKTTRLLLIIRSLKNTDALLNSTTEHINIDDLLYELTAFKATVFFLIRVAETRGGASALIENNLFRIIAELSFLKVDPDLGLDLMFDEVYVQNSKFLKVNVTLDNPLLVDKDANGVSLFELIVPIFQLISAVLVSMGSSNKAVVQTVKGLLNTYKRLVIGIFKRDLLREKEDKKNSSDPNNQSLNEMVKLIVMLCTLTGYQNNDEGHHHHHH | not soluble |
| MGSDKIHHHHHHMSLPSIKTTNSYCVVLWCDQGSATINAPDRVVQVMAGDVVLAPHGAFVTGHGVVLPMAFPDFDGGEHTRRLHMGTAWSKRMIFEFSRSLLGETRPSECIAALFDDRARPPRVPEPQAARKVAQKLIAYPADQTPLLEFAQLHNISSRTLQRQFVASTGFTFSEWRAALRVSVAADLLAHDFRIGQVSQMVGFSATSSLTRAFKRHTGDTPSSFTSPRMHAVCEQQPPMIPATTTFARASDDIALWIYSGTATVTTPGYCRFMGAGETVTIPSGTSTRLDVSAGSVALPVPLAAAHDDLTLSDVLAASVNPLAAVELQRLSAQERADVEQVLVPSV | not soluble |
| MVLSVVVVGKPRCRSIAVAARERLHRYGEYPMSSNNASGKVVSVDEQAFENAGEQAADEDGFPVVDETPEFEAAVEQETQAKVDANHPDGIADTSEDRIHGVTLEQEERIRAREAELERISAQAELGTQDGREQRTRDIAAKRSAVRRAEFQTRAASVDPMADPERDDPRAELTQEQLAAVNKQSMRLAEKLDGWSRAAIGRRLGEAVVGGKDVTSAVVGVFEELQTAPGTVIPIGKLEDVNRKEVSIEGTVTRLWKPSSAAISQVGLIEDESGKTKFTSWVASEQPWIEEGEHVRIHGAAKNWYNGRVSVALTGWSTVHFPERGRWWEALEHHHHHH | not soluble |
| MIVPKGNENIRPGYAMEPKYITIHETANTSKGANALNHAKYLDNQARGNTDRSASWHFTVDDKEIYQHLPLNEVGWHAGNKTGNYESIGIEIAVNSDGNYTKAVENAKKLAAYLMNELNISLDHVQKHQFWSGKNCPAFMIQRGQWDAFLKGTNAYYNEHHKDVIPPPEVPHEKDDITGGWYEQDIRQLAARKIMFGDGNGSYWPNRLVTRAEFANLMSRALNLPAGNAKFTDLNEAHPSLVDGINRAASAGIINGRGNNKFDPNATITRDEAVIMIDRALEYNWIYRKEVKLPFTDQHLAYDKKALQNVYAYGIVKGNERNEFVPKGTATRAESAAFLNRMLKVIEA | not soluble |
| MSLRLALRQVDGAALALRRCGEAWAGQDVRIAYPPSHGCWLKVAGADGSWQGWLQPRAWLRHMAPELASLASAAGMDDRLSELIAACEAPLSWPVADMPLGRIVAGERREGSQLPQRPMLRMDTPQGEVWLEKAPAPAEAARDRVPGWLPMPLRFLLGDSMVSPSLLRRAKAGDVLLISRPAQTVSCNGRAIGTYQWTEEGIIMEWQNEMAAAAETRPLADLDRLPVRLEFVLQQSEVTLDELRELCRSNVLPLSADAERRVELRANGALLGRGELVQLDGRLGVEVAQWLGGSGDVEEGHHHHHH | soluble |
| MLWWEEVEDSYEREDVQKKTFTKWVNAQFSKFGKQHIENLFSDLQDGRRLLDLLEGLTGQKLPKEKGSTRVHALNNVNKALRVLQNNNVDLVNIGSTDIVDGNHKLTLGLIWNIILHWQVKNVMKNIMAGLQQTNSEKILLSWVRQSTRNYPQVNVINFTTSWSDGLALNALIHSHRPDLFDWNSVVSQQSATQRLEHAFNIARYQLGIEKLLDPEDVDTTYPDKKSILMYITSLFQVLPQQVSIE | soluble |
| MGSDKIHHHHHHMLNIDGSKYIVNNNLKNYLDNIKKPWGILFYRVLWQQLDKIKTSKVLDFGSGFGITANHFASNNMVIAIEPNSELVEARIQENDYIQIVGDLKALKSQKDNYFDVILCHNVFEYAKEREEIFKEFLRILKPGGIISLVKHNHAGRIMQKVVFENNIDEAEKLLNGGIIEVLGFGKVSYYKLEDIKKWCKGFEVEIIKVLGIRTFWALQQDNKIKEDPIWQEKMFKIEMMVSNIDEYVNISFFNHIILKKALKNYALE | not soluble |
| MASIPTVNVIGAGLAGSEAAWHIANMGVNVRLYEMRPNKMTPAHHTAQFAELVCTNSLRANQLANAAGLLKAEMRQMDSIVMQAAEHHAVPAGGALAVDRDTFSAEITAAITALPNVEIINEEITSLPDGITVVATGPLTAASLAKSIQAFNDEDDLHFFDAAAPILTKDSIDMDKVYLKSRYDRGEAAYLNCPMTEAEFDVFYDALIHAEMAEAHDFENSDVFEGCMPIEVMAQRGRQTMLFGPLKPVGLEDPKTGKQPFAVVQLRQDDAAGDLYNIVGFQTHLKWGEQKRVFSLIPGLENVEFVRYGVMHRNTFMKSPKLLTPTYQTQQRPDLFFAGQMTGVEGYIESAASGIVAGTNAARLALGLEPVVFPTDTMMGAMAHYITHTSASNFQPMNANFGIMPKLKQRIRDKRERNTAISERALADLTTFKDETLTVNNLEHHHHHH | soluble |
| MAVIYYDKDADLNLIKDKKIAIIGYGSQGHAHALNLKDSGLNVVVGLREGSKSWKKAEEQGLTVKTIEEAAKEADIIMILIPDEHQPEIYKKYIEKHLTEGKMLMFAHGFNIHYHQIIPPKNVDVTMIAPKSPGHIVRREYVEGRGVPALVAVYQDYTGKAKDIALAYAKGIGVTRAGVIETTFKEETETDLFGEQAVLCGGVTALIKAGFETLVDAGYQPEIAYFECLNELKLIVDLIYEGGLSFMRYSVSNTAEYGDYISQEKIVTKEVRENMKQMLKDIQTGKFAKDWILENQAGRPYFYTMRKKESEHLIEKVGKELRKMMPWLKERNVDEE | soluble |
